Reference: patent US20150099861A1

Molecular target: CMV peptide 495-503 (pp65) presented on target cells (CMV) (UniProt P06725)

CD8+ T cells educated against pp65 peptide in the IVE assay (untreated) (cells without a defined receptor)
lysis in the chromium release assay: > 50%
